Legend:
[1] = molecular target: T1, OSM specific receptor (oncostatin M receptor) on human WI-26 VA4 cells (human, UniProt Q99650 28-979); experiment: competition for 125I-human OSM binding to WI-26 VA4 cells
T1 construct: whole, on cells; Endogenous receptor on cells; further subunits not described for this assay; also called specific OSM Receptor; WI-26 cells
T1 sequence (looked up): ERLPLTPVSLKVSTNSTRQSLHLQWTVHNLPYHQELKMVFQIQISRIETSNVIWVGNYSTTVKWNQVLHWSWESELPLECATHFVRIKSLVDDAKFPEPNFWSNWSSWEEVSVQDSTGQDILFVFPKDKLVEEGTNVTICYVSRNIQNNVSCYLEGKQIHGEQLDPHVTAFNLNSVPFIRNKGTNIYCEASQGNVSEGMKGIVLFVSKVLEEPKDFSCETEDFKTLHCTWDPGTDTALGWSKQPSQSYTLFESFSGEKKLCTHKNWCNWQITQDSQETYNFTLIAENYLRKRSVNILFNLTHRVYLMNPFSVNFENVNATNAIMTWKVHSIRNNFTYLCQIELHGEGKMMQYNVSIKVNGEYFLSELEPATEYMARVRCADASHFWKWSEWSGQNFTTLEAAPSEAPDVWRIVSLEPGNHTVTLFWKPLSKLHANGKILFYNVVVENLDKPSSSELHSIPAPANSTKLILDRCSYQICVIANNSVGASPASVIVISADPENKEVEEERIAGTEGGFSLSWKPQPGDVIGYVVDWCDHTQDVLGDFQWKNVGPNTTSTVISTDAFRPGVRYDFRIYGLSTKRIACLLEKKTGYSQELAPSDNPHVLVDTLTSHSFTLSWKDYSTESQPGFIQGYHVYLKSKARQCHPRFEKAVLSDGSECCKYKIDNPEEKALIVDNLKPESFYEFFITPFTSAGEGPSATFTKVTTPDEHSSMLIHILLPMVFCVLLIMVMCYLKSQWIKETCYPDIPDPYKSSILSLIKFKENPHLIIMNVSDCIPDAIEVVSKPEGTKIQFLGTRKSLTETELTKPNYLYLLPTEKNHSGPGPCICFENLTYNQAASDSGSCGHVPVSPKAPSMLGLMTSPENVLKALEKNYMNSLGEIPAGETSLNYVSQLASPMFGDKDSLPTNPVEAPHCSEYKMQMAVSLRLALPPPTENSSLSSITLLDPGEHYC

[2] = molecular target: T2, Mouse LIF receptor on mouse M1 cells (LIF receptor complex with gp130) (mouse, UniProt P42703 44-1092; Q00560 23-917); experiment: conditioned medium competing for 125I-human LIF binding to M1 cells
T2 construct: whole, on cells; Endogenous receptor on M1 cells; also called LIFRβ
T2 sequence (Q00560 23-917, one chain of several): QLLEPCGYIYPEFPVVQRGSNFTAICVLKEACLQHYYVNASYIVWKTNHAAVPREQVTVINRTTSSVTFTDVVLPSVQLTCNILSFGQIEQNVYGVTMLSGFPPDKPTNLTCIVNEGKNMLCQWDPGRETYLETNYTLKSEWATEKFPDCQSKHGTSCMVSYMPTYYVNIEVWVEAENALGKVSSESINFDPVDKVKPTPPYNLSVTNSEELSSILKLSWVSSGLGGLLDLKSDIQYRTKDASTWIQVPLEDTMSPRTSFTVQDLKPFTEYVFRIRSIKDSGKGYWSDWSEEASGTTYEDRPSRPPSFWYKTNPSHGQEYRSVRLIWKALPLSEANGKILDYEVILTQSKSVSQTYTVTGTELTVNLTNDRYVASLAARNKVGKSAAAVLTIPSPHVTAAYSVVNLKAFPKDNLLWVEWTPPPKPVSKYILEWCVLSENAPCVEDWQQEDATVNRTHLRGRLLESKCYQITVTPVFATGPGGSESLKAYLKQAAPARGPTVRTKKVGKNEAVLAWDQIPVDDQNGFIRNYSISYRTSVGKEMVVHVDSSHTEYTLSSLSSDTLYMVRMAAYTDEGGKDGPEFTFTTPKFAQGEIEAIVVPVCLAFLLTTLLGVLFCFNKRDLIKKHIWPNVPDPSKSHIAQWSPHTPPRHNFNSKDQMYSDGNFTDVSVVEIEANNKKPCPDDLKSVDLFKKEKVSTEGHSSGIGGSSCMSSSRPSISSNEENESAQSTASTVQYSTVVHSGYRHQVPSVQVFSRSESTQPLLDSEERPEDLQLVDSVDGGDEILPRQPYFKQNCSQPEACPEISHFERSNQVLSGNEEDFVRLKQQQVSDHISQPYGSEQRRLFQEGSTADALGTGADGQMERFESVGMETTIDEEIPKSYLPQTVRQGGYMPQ

[3] = molecular target: T3, Human LIF receptor on human Hela cells (human, UniProt P42702 45-1097); experiment: conditioned medium competing for 125I-human LIF binding to Hela cells
T3 construct: whole, on cells; Endogenous receptor on cells; other subunits (gp130) not examined on these cells
T3 sequence (looked up): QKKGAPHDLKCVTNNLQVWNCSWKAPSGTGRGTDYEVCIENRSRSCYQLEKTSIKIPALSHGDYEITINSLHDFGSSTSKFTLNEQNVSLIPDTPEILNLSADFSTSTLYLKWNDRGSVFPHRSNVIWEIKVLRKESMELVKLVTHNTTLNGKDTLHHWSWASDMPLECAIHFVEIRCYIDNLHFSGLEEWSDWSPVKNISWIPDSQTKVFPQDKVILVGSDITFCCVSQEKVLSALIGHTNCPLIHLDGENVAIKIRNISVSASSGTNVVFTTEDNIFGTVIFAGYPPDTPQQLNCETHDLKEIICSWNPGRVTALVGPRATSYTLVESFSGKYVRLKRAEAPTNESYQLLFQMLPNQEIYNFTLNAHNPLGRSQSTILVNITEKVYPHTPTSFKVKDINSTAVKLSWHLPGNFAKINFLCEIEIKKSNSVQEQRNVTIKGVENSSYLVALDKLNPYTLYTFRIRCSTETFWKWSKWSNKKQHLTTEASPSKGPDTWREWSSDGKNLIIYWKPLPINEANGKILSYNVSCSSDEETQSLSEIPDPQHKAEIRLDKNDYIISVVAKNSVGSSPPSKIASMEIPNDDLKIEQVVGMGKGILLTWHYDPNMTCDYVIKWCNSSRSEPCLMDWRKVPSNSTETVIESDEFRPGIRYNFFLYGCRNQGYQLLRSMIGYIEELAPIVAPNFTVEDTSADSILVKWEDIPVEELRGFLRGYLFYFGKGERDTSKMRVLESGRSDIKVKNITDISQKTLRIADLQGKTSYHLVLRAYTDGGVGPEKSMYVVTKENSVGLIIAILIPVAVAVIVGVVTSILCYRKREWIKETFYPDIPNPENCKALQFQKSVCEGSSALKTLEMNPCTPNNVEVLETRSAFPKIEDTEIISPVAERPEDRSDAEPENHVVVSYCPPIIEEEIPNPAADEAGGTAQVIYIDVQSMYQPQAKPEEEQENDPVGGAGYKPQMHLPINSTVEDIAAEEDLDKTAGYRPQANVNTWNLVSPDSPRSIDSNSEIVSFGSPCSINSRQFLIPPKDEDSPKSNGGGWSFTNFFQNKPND

B1: Human CT-1 (conditioned medium from human 293 cells transfected with pRK5.hu.CT1) (ligand)
chain: MSRREGSLEDPQTDSSVSLLPHLEAKIRQTHSLAHLLTKYAEQLLQEYVQLQGDPFGLPSFSPPRLPVAGLSAPAPSHAGLPVHERLRLDAAALAALPPLLDAVCRRQAELNPRAPRLLRRLEDAARQARALGAAVEALLAALGAANRGPRAEPPAATASAASATGVFPAKVLGLRVCGLYREWLSRTEGDLGQLLPGGSA
notes: Not purified: tested as clarified conditioned medium (concentrated 10 fold and added at a 3-fold dilution for Hela cells; unconcentrated for WI-26 cells); also called human cardiotrophin-1; hCT-1
binding result [1]: no binding | binding result [2]: binds | binding result [3]: binds
